Experimental data reported in patent US10253323B2, “Chloroplast transit peptides” (priority 2015, dated 2019).

Assays:
[1] = test system: Wildtype, non-transformed Arabidopsis thaliana c.v. Columbia; test: Glyphosate response of non-transformed control Arabidopsis; type: in vivo; settings: WT (non-transformed control), 14 days after application
Description: (§1) The Arabidopsis T1 transformants (from transformation with pDAB114286 or pDAB114287) were first selected from the background of untransformed seed using a glufosinate selection scheme. Three flats or 50,000 seed were analyzed for each T1 construct. The selected T1 plants were molecularly characterized (as described above) and events with a range of copy number were sprayed with various rates of commercial glyphosate.
(§2) Transgenic T1 Arabidopsis plants containing the dgt-28 transgene were sprayed with differing rates of glyphosate. Elevated rates were applied in this study to determine the relative levels of resistance (420, 840, 1,680 or 3,360 g ae/ha). The typical 1× field usage rate of glyphosate is 1120 g ae/ha. The response of these plants is presented in terms of % visual injury 2 weeks after treatment (WAT). The T1 Arabidopsis plants that were used in this study were of variable copy number for the dgt-28 transgene. The low copy dgt-28 T1 Arabidopsis plants were self-pollinated and used to produce T2 plants.
(§3) An arithmetic mean and standard deviation is presented for each construct used for Arabidopsis transformation. The range in individual response is also indicated in the last column for each rate and transformation. Wildtype, non-transformed Arabidopsis thaliana c.v. Columbia served as a glyphosate sensitive control.

[2] = test system: dgt-28 transformed T1 Arabidopsis; test: Glyphosate tolerance of dgt-28 transformed T1 Arabidopsis; type: in vivo, Arabidopsis thaliana; settings: 14 days after application
Description: as §1, §2, §3

[3] = 420 g ae/ha glyphosate postemergence
[4] = 840 g ae/ha glyphosate postemergence
[5] = 1680 g ae/ha glyphosate postemergence
[6] = 3360 g ae/ha glyphosate postemergence

For `O=C(O)CNCP(=O)(O)O` [glyphosate], the “% Injury Analysis Ave” value ([1]; 420 g ae/ha postemergence) was 100.0%, the “% Injury Analysis Range (%)” value ([1]; 420 g ae/ha postemergence) was 100% and the “% Injury Range (No. Replicates) 20-40%” value ([1]; 420 g ae/ha postemergence) was 0. For the same molecule, the “% Injury Range (No. Replicates) <20%” value ([1]; 420 g ae/ha postemergence) was 0, the “% Injury Range (No. Replicates) >40%” value ([1]; 420 g ae/ha postemergence) was 4 and the “% Injury Analysis Ave” value ([1]; 840 g ae/ha postemergence) was 100.0%. The “% Injury Analysis Range (%)” value ([1]; 840 g ae/ha postemergence) was 100%, the “% Injury Range (No. Replicates) 20-40%” value ([1]; 840 g ae/ha postemergence) was 0 and the “% Injury Range (No. Replicates) <20%” value ([1]; 840 g ae/ha postemergence) was 0. The “% Injury Range (No. Replicates) >40%” value ([1]; 840 g ae/ha postemergence) was 4, the “% Injury Analysis Ave” value ([1]; 1680 g ae/ha postemergence) was 100.0% and the “% Injury Analysis Range (%)” value ([1]; 1680 g ae/ha postemergence) was 100%. The “% Injury Range (No. Replicates) 20-40%” value ([1]; 1680 g ae/ha postemergence) was 0, the “% Injury Range (No. Replicates) <20%” value ([1]; 1680 g ae/ha postemergence) was 0 and the “% Injury Range (No. Replicates) >40%” value ([1]; 1680 g ae/ha postemergence) was 4. For the same molecule, the “% Injury Analysis Ave” value ([1]; 3360 g ae/ha postemergence) was 100.0%, the “% Injury Analysis Range (%)” value ([1]; 3360 g ae/ha postemergence) was 100% and the “% Injury Range (No. Replicates) 20-40%” value ([1]; 3360 g ae/ha postemergence) was 0. For the same molecule, the “% Injury Range (No. Replicates) <20%” value ([1]; 3360 g ae/ha postemergence) was 0 and the “% Injury Range (No. Replicates) >40%” value ([1]; 3360 g ae/ha postemergence) was 4.

B1: TraP26::dgt-28: TraP26-dgt28 fusion gene (SEQ ID NO:27) in construct pDAB114286, expressed in T1 Arabidopsis (protein)
chain: MAQVSMIPNAIQAPCSISLSKSQAGKSVRKVSLKPNQHAAWGLRRSGMRVGNPEVVVSASARGMPALSLPGSKSITARALFLAAAADGVTTLVRPLRSDDTEGFAEGLVRLGYRVGRTPDTWQVDGRPQGPAVAEADVYCRDGATTARFLPTLAAAGHGTYRFDASPQMRRRPLLPLSRALRDLGVDLRHEEAEGHHPLTVRAAGVEGGEVTLDAGQSSQYLTALLLLGPLTRQGLRIRVTDLVSAPYVEITLAMMRAFGVEVAREGDVFVVPPGGYRATTYAIEPDASTASYFFAAAALTPGAEVTVPGLGTGALQGDLGFVDVLRRMGAEVSVGADATTVRGTGELRGLTANMRDISDTMPTLAAIAPFASAPVRIEDVANTRVKECDRLEACAENLRRLGVRVATGPDWIEIHPGPATGAQVTSYGDHRIVMSFAVTGLRVPGISFDDPGCVRKTFPGFHEAFAELRRGIGS
modifications: Trap26 DGT28 fusion coding sequence
For B1, the “% Injury Analysis Ave” value [2, 3] was 0.0%, the “% Injury Analysis Range (%)” value [2, 3] was 0% and the “% Injury Range (No. Replicates) 20-40%” value [2, 3] was 0. The “% Injury Range (No. Replicates) <20%” value [2, 3] was 4, the “% Injury Range (No. Replicates) >40%” value [2, 3] was 0 and the “% Injury Analysis Ave” value [2, 4] was 0.0%. For the same molecule, the “% Injury Analysis Range (%)” value [2, 4] was 0%, the “% Injury Range (No. Replicates) 20-40%” value [2, 4] was 0 and the “% Injury Range (No. Replicates) <20%” value [2, 4] was 4. The “% Injury Range (No. Replicates) >40%” value [2, 4] was 0, the “% Injury Analysis Ave” value [2, 5] was 10.0% and the “% Injury Analysis Range (%)” value [2, 5] was 10%. For the same molecule, the “% Injury Range (No. Replicates) 20-40%” value [2, 5] was 0, the “% Injury Range (No. Replicates) <20%” value [2, 5] was 4 and the “% Injury Range (No. Replicates) >40%” value [2, 5] was 0. The “% Injury Analysis Ave” value [2, 6] was 16.3%, the “% Injury Analysis Range (%)” value [2, 6] was 15-20% and the “% Injury Range (No. Replicates) 20-40%” value [2, 6] was 1. The “% Injury Range (No. Replicates) <20%” value [2, 6] was 3 and the “% Injury Range (No. Replicates) >40%” value [2, 6] was 0.

B2: TraP27::dgt-28: TraP27-dgt28 fusion gene (SEQ ID NO:28) in construct pDAB114287, expressed in T1 Arabidopsis (protein)
chain: MATFTRVCHTARKSFVSLSNSQANSPVSVRFLSLPMPAARPAVKSGVRLWGCRLSFKVSASARGMPALSLPGSKSITARALFLAAAADGVTTLVRPLRSDDTEGFAEGLVRLGYRVGRTPDTWQVDGRPQGPAVAEADVYCRDGATTARFLPTLAAAGHGTYRFDASPQMRRRPLLPLSRALRDLGVDLRHEEAEGHHPLTVRAAGVEGGEVTLDAGQSSQYLTALLLLGPLTRQGLRIRVTDLVSAPYVEITLAMMRAFGVEVAREGDVFVVPPGGYRATTYAIEPDASTASYFFAAAALTPGAEVTVPGLGTGALQGDLGFVDVLRRMGAEVSVGADATTVRGTGELRGLTANMRDISDTMPTLAAIAPFASAPVRIEDVANTRVKECDRLEACAENLRRLGVRVATGPDWIEIHPGPATGAQVTSYGDHRIVMSFAVTGLRVPGISFDDPGCVRKTFPGFHEAFAELRRGIGS
modifications: Trap27 DGT28 fusion coding sequence
For B2, the “% Injury Analysis Ave” value [2, 3] was 19.0%, the “% Injury Analysis Range (%)” value [2, 3] was 10-30% and the “% Injury Range (No. Replicates) 20-40%” value [2, 3] was 1. The “% Injury Range (No. Replicates) <20%” value [2, 3] was 3, the “% Injury Range (No. Replicates) >40%” value [2, 3] was 0 and the “% Injury Analysis Ave” value [2, 4] was 15.8%. The “% Injury Analysis Range (%)” value [2, 4] was 10-20%, the “% Injury Range (No. Replicates) 20-40%” value [2, 4] was 1 and the “% Injury Range (No. Replicates) <20%” value [2, 4] was 3. For the same molecule, the “% Injury Range (No. Replicates) >40%” value [2, 4] was 0, the “% Injury Analysis Ave” value [2, 5] was 18.8% and the “% Injury Analysis Range (%)” value [2, 5] was 15-20%. The “% Injury Range (No. Replicates) 20-40%” value [2, 5] was 3, the “% Injury Range (No. Replicates) <20%” value [2, 5] was 1 and the “% Injury Range (No. Replicates) >40%” value [2, 5] was 0. The “% Injury Analysis Ave” value [2, 6] was 25.0%, the “% Injury Analysis Range (%)” value [2, 6] was 25% and the “% Injury Range (No. Replicates) 20-40%” value [2, 6] was 4. The “% Injury Range (No. Replicates) <20%” value [2, 6] was 0 and the “% Injury Range (No. Replicates) >40%” value [2, 6] was 0.
